Results on three molecules are retold here after US20090111745A1 (DOMANTIS, published 2009).

Assay [1] deals with T1, human serum albumin (human, UniProt P02768 25-609).
T1 construct: also called HSA; HAS
Kind of assay: BIACORE SPR, albumin on a CM5 chip, dAb in solution. In general terms: Surface plasmon resonance follows binding to a sensor surface in real time, without labels.
Protocol: (§1) dAbs that bound serum albumin on a BIACORE chip (Biacore AB) were then further analysed to obtain information on affinity. The analysis was performed using a CM5 chip (carboxymethylated dextran matrix) that was coated with serum albumin. Flow cell 1 was an uncoated, blocked negative control, flow cell 2 was coated with HSA, flow cell 3 was coated with RSA and flow cell 4 was coated with MSA. The serum albumins were immobilised in acetate buffer pH 5.5 using the BIACORE coating wizard which was programmed to aim for 500 resonance units (RUs) of coated material. Each dAb of interest was expressed in the periplasm of E. coli on a 200 mL-500 mL scale and purified from the supernatant using batch absorption to protein A-streamline affinity resin (Amersham, UK) for the VH_{^S} and to protein L-agarose affinity resin (Affitech, Norway) for the Vκs followed by elution with glycine at pH 2.2 and buffer exchange to PBS. A range of concentrations of dAb were prepared (in the range 5 nM to 5 μM) by dilution into BIACORE HBS-EP buffer and flowed across the BIACORE chip.

Another assay addresses T2, mouse serum albumin (mouse, UniProt P07724 25-608).
T2 construct: also called MSA
Briefly: table of affinities (KD); BIACORE on serum albumin-coated chip according to Example 1.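 Note: surface plasmon resonance with dAbs flowed over a chip carrying human, rat or mouse serum albumin, blocked uncoated flow cell as reference, KD from on- and off-rate curve fits.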

Assay [2] addresses T1, human serum albumin. Described as above.
Protocol: as §1
For assay [3], the target named is T3, rat serum albumin (rat, UniProt P02770 25-608).
T3 construct: also called RSA
Described as above.
Protocol: as §1

The target in assay [4] is T1, human serum albumin. Kind of assay: BIACORE, HSA flow cell (Fc=2), fit of the single trace at 250n analyte, row 'Fc=2 - 6' [contd.].
Protocol: as §1
In assay [5] the target is T1, human serum albumin. Kind of assay: BIACORE, HSA flow cell (Fc=2), fit of the single trace at 500n analyte, row 'Fc=2 - 5' [contd.].
Protocol: as §1
For assay [6], the target named is T1, human serum albumin. Briefly: BIACORE, HSA flow cell (Fc=2), fit of the single trace at 1000n analyte, row 'Fc=2 - 4' [contd.].
Protocol: as §1
Assay [7] addresses T1, human serum albumin. Briefly: BIACORE, HSA flow cell (Fc=2), fit of the single trace at 2000n analyte, row 'Fc=2 - 3' [contd.].
Protocol: as §1
The target in assay [8] is T1, human serum albumin. Briefly: BIACORE, HSA flow cell (Fc=2), fit of the single trace at 250n analyte, row 'Fc=2 - 6'; KD cell shaded [contd.].
Protocol: (§2) dAbs that bound serum albumin on a BIACORE chip (Biacore AB) were then further analysed to obtain information on affinity. The analysis was performed using a CM5 chip (carboxymethylated dextran matrix) that was coated with serum albumin. Flow cell 1 was an uncoated, blocked negative control, flow cell 2 was coated with HSA, flow cell 3 was coated with RSA and flow cell 4 was coated with MSA. The serum albumins were immobilised in acetate buffer pH 5.5 using the BIACORE coating wizard which was programmed to aim for 500 resonance units (RUs) of coated material. […] A range of concentrations of dAb were prepared (in the range 5 nM to 5 μM) by dilution into BIACORE HBS-EP buffer and flowed across the BIACORE chip.
The target of assay [9] is T1, human serum albumin. Briefly: BIACORE, HSA flow cell (Fc=2), fit of the single trace at 500n analyte, row 'Fc=2 - 5'; KD cell shaded [contd.].
Protocol: as §2
Assay [10] has as its target T1, human serum albumin. Briefly: BIACORE, HSA flow cell (Fc=2), fit of the single trace at 1000n analyte, row 'Fc=2 - 4'; KD cell shaded [contd.].
Protocol: as §1
The target in assay [11] is T1, human serum albumin. Kind of assay: BIACORE, HSA flow cell (Fc=2), fit of the single trace at 2000n analyte, row 'Fc=2 - 3'; KD cell shaded [contd.].
Protocol: as §1
Assay [12] deals with T1, human serum albumin. Briefly: BIACORE, HSA flow cell (Fc=2), fit of the single trace at 125n analyte, row 'Fc=2 - 47' [contd.].
Protocol: as §1
Assay [13] concerns the target T1, human serum albumin. Kind of assay: BIACORE, HSA flow cell (Fc=2), fit of the single trace at 250n analyte, row 'Fc=2 - 46' [contd.].
Protocol: as §1
The target in assay [14] is T1, human serum albumin. Kind of assay: BIACORE, HSA flow cell (Fc=2), fit of the single trace at 500n analyte, row 'Fc=2 - 45' [contd.].
Protocol: as §1
The target of assay [15] is T1, human serum albumin. Briefly: BIACORE, HSA flow cell (Fc=2), fit of the single trace at 1000n analyte, row 'Fc=2 - 44' [contd.].
Protocol: as §1
For assay [16], the target named is T1, human serum albumin. Kind of assay: BIACORE, HSA flow cell (Fc=2), fit of the single trace at 2000n analyte, row 'Fc=2 - 43' [contd.].
Protocol: as §1
Assay [17] addresses T1, human serum albumin. Kind of assay: BIACORE, HSA flow cell (Fc=2), fit of the single trace at 3000n analyte, row 'Fc=2 - 42' [contd.].
Protocol: as §1
For assay [18], the target named is T1, human serum albumin. Kind of assay: BIACORE, HSA flow cell (Fc=2), fit of the single trace at 5000n analyte, row 'Fc=2 - 41' [contd.].
Protocol: as §2
The target in assay [19] is T1, human serum albumin. Briefly: BIACORE, HSA flow cell (Fc=2), fit of the single trace at 62.5n analyte, row 'Fc=2 - 48' [contd.].
Protocol: as §1
For assay [20], the target named is T1, human serum albumin. Briefly: BIACORE, HSA flow cell (Fc=2), fit of the single trace at 125n analyte, row 'Fc=2 - 47'; KD cell shaded [contd.].
Protocol: as §1
In assay [21] the target is T1, human serum albumin. Kind of assay: BIACORE, HSA flow cell (Fc=2), fit of the single trace at 250n analyte, row 'Fc=2 - 46'; KD cell shaded [contd.].
Protocol: as §1
Assay [22] deals with T1, human serum albumin. Briefly: BIACORE, HSA flow cell (Fc=2), fit of the single trace at 500n analyte, row 'Fc=2 - 45'; KD cell shaded [contd.].
Protocol: as §1
The target of assay [23] is T1, human serum albumin. Briefly: BIACORE, HSA flow cell (Fc=2), fit of the single trace at 62.5n analyte, row 'Fc=2 - 48'; KD cell shaded [contd.].
Protocol: as §2
The target of assay [24] is T1, human serum albumin. Briefly: BIACORE, HSA flow cell (Fc=2), fit of the single trace at 1000n analyte, row 'Fc=2 - 44'; KD cell not shaded [contd.].
Protocol: as §1
Assay [25] concerns the target T1, human serum albumin. Briefly: BIACORE, HSA flow cell (Fc=2), fit of the single trace at 2000n analyte, row 'Fc=2 - 43'; KD cell not shaded [contd.].
Protocol: as §1
Assay [26] addresses T1, human serum albumin. Briefly: BIACORE, HSA flow cell (Fc=2), fit of the single trace at 3000n analyte, row 'Fc=2 - 42'; KD cell not shaded [contd.].
Protocol: as §1
In assay [27] the target is T1, human serum albumin. Kind of assay: BIACORE, HSA flow cell (Fc=2), fit of the single trace at 5000n analyte, row 'Fc=2 - 41'; KD cell not shaded [contd.].
Protocol: as §1
In assay [28] the target is T3, rat serum albumin. Briefly: affinity (KD) for rat serum albumin; method not stated in the table (BIACORE SPR in Example 1).
For assay [29], the target named is T1, human serum albumin. Kind of assay: table of affinities (KD); BIACORE on serum albumin-coated chip according to Example 1; '+' = detectable binding but weak (estimated KD > 5 µM).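 Note: surface plasmon resonance with dAbs flowed over a chip carrying human, rat or mouse serum albumin, blocked uncoated flow cell as reference, KD from on- and off-rate curve fits.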
Protocol: as §1

Protocol for mouse serum albumin: as §1

B1: DOM7h-1 (other)
VL: DIQMTQSPSSLSASVGDRVTITCRASQSISSYLNWYQQKPGKAPKLLIYRNSFLQSGVPSRFSGSGSGTDFTLTISSLQPEDFATYYCQQTYTVPPTFGQGTKVEIKQ
notes: also called DOM7-1
Broadly, the Kd is the constant that tells how readily two partners part at equilibrium. The term koff denotes a measure of how fast the partners let go of each other. Low readings indicate a long-lived complex, high ones a short-lived complex. As usually defined, the kon is a measure of how fast the partners come together. Low readings indicate slow association, high ones fast association. B1: the equilibrium dissociation constant (Kd) was 500 to 5000 nM with human serum albumin [1]; greater than 5000 nM with mouse serum albumin; 800 nM with human serum albumin [2]; greater than 5 µM with rat serum albumin [3]; 970 nM with human serum albumin [8]; 429 nM in the assay with human serum albumin [9]. Besides, the Kd with human serum albumin [10] came to 351 nM; with human serum albumin [11] it was 957 nM. Besides, the Ka came to 1.03e+06 M⁻¹ in the assay with human serum albumin [4], 2.33e+06 M⁻¹ with human serum albumin [5], 2.85e+06 M⁻¹ with human serum albumin [6] and 1.05e+06 M⁻¹ with human serum albumin [7]. Further, the koff came to 0.0486 s⁻¹ with human serum albumin [4], 0.0481 s⁻¹ with human serum albumin [5], 0.0523 s⁻¹ with human serum albumin [6] and 0.0539 s⁻¹ with human serum albumin [7]. Moreover, the on-rate constant (kon) with human serum albumin [4] turned out to be 50100 M⁻¹ s⁻¹; in the assay with human serum albumin [5], 112000 M⁻¹ s⁻¹; in the assay with human serum albumin [6], 149000 M⁻¹ s⁻¹; with human serum albumin [7] it was 56300 M⁻¹ s⁻¹.

B2: DOM7h-7 (other)
VL: DIQMTQSPSSLSASVGDRVTITCRASQSISSYLNWYQQKPGKAPKLLIYRNSQLQSGVPSRFSGSGSGTDFTLTISSLQPEDFATYYCQQTFAVPPTFGQGTKVEIKR
Turning to B2, the Kd with human serum albumin [1] was 100 to 500 nM; with mouse serum albumin, greater than 5000 nM; with human serum albumin [2], 400 nM; with rat serum albumin [3], greater than 5 µM; in the assay with human serum albumin [20], 662 nM; in the assay with human serum albumin [21] it was 353 nM. Besides, the Kd was determined as 341 nM in the assay with human serum albumin [22]; 200 nM with human serum albumin [23]; 169 nM with human serum albumin [24]; 430 nM in the assay with human serum albumin [25]; 45.1 µM with human serum albumin [26]; 9.71 mM with human serum albumin [27]. Besides, the Ka in the assay with human serum albumin [12] amounted to 1.51e+06 M⁻¹; with human serum albumin [13], 2.83e+06 M⁻¹; in the assay with human serum albumin [14] it was 2.93e+06 M⁻¹; in the assay with human serum albumin [15], 5.93e+06 M⁻¹; with human serum albumin [16] it was 2.33e+06 M⁻¹; with human serum albumin [17], 22100 M⁻¹. Also, the Ka in the assay with human serum albumin [19] turned out to be 5.01e+06 M⁻¹. Moreover, the koff turned out to be 0.0946 s⁻¹ with human serum albumin [12]; 0.0998 s⁻¹ in the assay with human serum albumin [13]; 0.103 s⁻¹ with human serum albumin [14]; 0.105 s⁻¹ with human serum albumin [15]; 0.108 s⁻¹ in the assay with human serum albumin [16]; 0.106 s⁻¹ in the assay with human serum albumin [17]. Further, the koff was determined as 0.107 s⁻¹ with human serum albumin [18] and 0.1 s⁻¹ with human serum albumin [19]. Besides, the kon was 143000 M⁻¹ s⁻¹ with human serum albumin [12]; 283000 M⁻¹ s⁻¹ with human serum albumin [13]; 302000 M⁻¹ s⁻¹ with human serum albumin [14]; 623000 M⁻¹ s⁻¹ in the assay with human serum albumin [15]; 251000 M⁻¹ s⁻¹ with human serum albumin [16]; 2350 M⁻¹ s⁻¹ in the assay with human serum albumin [17]. The kon with human serum albumin [19] was determined as 501000 M⁻¹ s⁻¹.

B3: DOM7r-31 (other)
VH: EVQLLESGGGLVQPGGSLRLSCTASGFTFRHYRMGWVRQAPGKGLEWVSWIRPDGTFTYYADSVKGRFTISRDNSKNTLYLQMNSLRAEDTAVYYCAKSYMGDRFDYWGQGTLVTVSS
Consider B3, for which the figures for the Kd with mouse serum albumin, with rat serum albumin [28] and in the assay with human serum albumin [29] were 1000 nM, 5 µM and roughly 10 µM, respectively.
